Assay results from publication PMC6745058 (Molecular cell, 2019).

Target: T1, Rtt107NTD (BRCT1-4 domains of Rtt107, residues 2-513) (S. cerevisiae, UniProt P38850 2-513)
T1 sequence (looked up): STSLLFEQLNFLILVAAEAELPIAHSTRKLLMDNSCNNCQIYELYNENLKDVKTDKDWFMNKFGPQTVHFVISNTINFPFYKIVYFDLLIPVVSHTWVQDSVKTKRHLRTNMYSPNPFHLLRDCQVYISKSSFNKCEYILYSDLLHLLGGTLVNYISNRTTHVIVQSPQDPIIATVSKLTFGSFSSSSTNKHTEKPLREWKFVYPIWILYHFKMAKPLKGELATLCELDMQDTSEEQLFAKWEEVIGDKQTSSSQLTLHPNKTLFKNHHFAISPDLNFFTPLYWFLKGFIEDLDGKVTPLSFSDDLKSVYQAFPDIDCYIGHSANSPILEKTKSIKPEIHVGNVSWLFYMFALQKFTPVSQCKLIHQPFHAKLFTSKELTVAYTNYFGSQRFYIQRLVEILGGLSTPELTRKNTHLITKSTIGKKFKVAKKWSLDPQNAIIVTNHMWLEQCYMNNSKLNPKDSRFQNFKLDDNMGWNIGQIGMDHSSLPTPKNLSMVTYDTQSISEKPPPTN
Assay: ITC

- Kd: 15 nM
Binder: DVDEPNPIVISDSEATDEEISIIYEPEFNENYLWAEE (peptide, UniProt Q06164 2-38, looked up) [Mms22RIM peptide (Mms22 residues 2-38)]
